Experimental data: the nanobody polyreactivity screen of Harvey et al. (2022)

experiment: yeast display, Sf9 membrane polyspecificity reagent, FACS + sequencing; frameworks hold sequencing errors
How it was run: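 A nanobody's polyreactivity label depends on the gate it was sorted from. Yeast display cells were stained with 10% biotinylated, detergent-solubilized Sf9 membrane reagent for 1 hour at 4 °C, enriched on streptavidin microbeads and sorted by FACS. The low and high (top ~1%) gates were set on anti-HA fluorescence for expression and streptavidin fluorescence for reagent binding.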

Sequence	polyreactivity (PSR sort gate)
QVQLEESGGGLVQAGGSLRLSCAASGSTFRYYAMGWYRQAPGKERELVAAISRSGGRTYYADSVKGRFTISRDNAKNTVYLQMNSLKPEDTAVYYCATRGDGSSWGDYDYWGQGTQVTVSS	high polyreactivity
QVQLEESGGGLVQAGGSLRLSCAASGSTFSYNTMGWYRQAPGKERELVASITWSGGSTNYADSVKGRFTISRDNAKNTVYLQMNSLKPEDTAVYYCAKDYISVWNVRASDYYWYDYWGQGTQVTVSS	low polyreactivity
QVQLEESGGGLVQAGGSLRLSCAASGSTFVYYAMGWYRQSPGKERELVAAISRGGGSTYYADSVKGRFTISRDNAKNTVYLQMNSLKPEDTAVYYCAAVAGYRYYWGQGTQVTVSS	high polyreactivity
QVQLEESGGGLVQAGGSLRLSCAASGSTFVYYPMGWYRQATGKERELVAVISDDGGTYYADSVKGRFTISRDNAKNTVYLQMNSLKPEDTAVFYCAKDYYGGAFYWYNDRSGDYWGQGTQVTVSS	low polyreactivity
QVQLEESGGGLVQAGGSLRLSCAASGSTYACYYMGWYIQAPGTEREFVAAIDYGGGSTYADSVQGRFTISRDNAKITVYLQMNSLKPEDTAVYYCYADNWVYLYVYWGQGTQVTVSS	low polyreactivity
QVQLEESGGGLVQAGGSLRLSCAASGYIFYEYAMGWYRQAPGKERELVAAISRRGGRTYYADSVKGRFTISRDNAKNTVYLQMHSLKPEDTAVYYCAASVRFGDYEYWGQGTQVTVSS	high polyreactivity
QVQLEESGGGLVQAGGSLRLSCAASGYTFFTNVMGWYRQAPGKERELVATITTGGSTYADSVKGRFTISRDNAKNTVYLQMNSLKPEDTAVYYCAVDALTGAWLGGYPYWADGYDYWGQGTQVTVSS	low polyreactivity
QVQLEESGGGLVQAGGSLRLSCAASGYTFGLYAMGWYRQAPRKERELVAAISSDASTNYADSVKGRFTISRDNAKNTVYLQMNSLKPEDTAVYYCAAAVKRGYAQSFISDGYGYWGQGTQVTVSS	low polyreactivity
QVQLEESGGGLVQAGGSLRLSCAASVSIFGVNVMGWYRQAPGKERELVAAISSGGSTNYADSVKGRFTISGDNEKKTVYLLMISLKPDDTAVYFCIAGLGRLYDYWGQGTQVTVSS	low polyreactivity
QVQLEESGGGLVQAGGSLRLSCAATGSTFYDYAMGWYRQAPGKERELVASITFTGGSTYYADSVKGRFTISRDNAKNTVYLQMISLKPEDTAVYFCAAYGWRVHDRWFFERDYWGLGTQVTVSS	high polyreactivity
QVQLEESGGGLVQAGGSLRLSCAATGYTFEANAMGWYRQAPGKERELVAVITWTGGSTYYADSVKGRFTISRDNAKYTVYLQMNSLKPEDTAVYYCAADGVVPGRFFWPAHEYDFWGQGTQVTVSS	low polyreactivity
QVQLEESGGGLVQAGGSLRLSCAAYGRTFPNYAMGRYRQAPGKEREMVADISSSGVSTYYADSVKGRFTISRDNAKNTVYLKMNSLKPEDTAVYYCAARSWWFQRGEYWGQGTQVTVSS	high polyreactivity
QVQLEESGGGLVQAGGSLRLSCAPSGSIFFYYAMGWYRQAPGKERELVAAITFTGGSTYYADSVKGRFTISRDNANNTVYLQMNSLNPEDTAVSYCAADWYYGDEYEYWGQGTQVTVSS	high polyreactivity
QVQLEESGGGLVQAGGSLRLSCDASGSTLLYYAMGWYRPAPGKERELVAAISWRGGSTYYADSVKGRFTISRDNAKNTVYLQMNSLKPEDTAVYYCAARSLRLVGPYYYWGEGTQVTVSS	high polyreactivity
QVQLEESGGGLVQAGGSLRLSFAASGRTFWWYAMGWYRQAPGKERELVAAITWSGGSTYYADSVKGRFTISRDNAKNTVYLQMNSLKPEDTAVYYCAAYVHNKYDYWGQGTQVTVSS	low polyreactivity
QVQLEESGGGLVQAGGSLRLSSAASGIIFGTNAMGWYRQAPGKERELVAGITSSGDSTYYADSVKGRFTISRDNPKNTVYLQMNSLKPEDTAVYYCARDIRTREFDSWGQGTQVTVSS	low polyreactivity
QVQLEESGGGLVQAGGSLRLSSAASGSIFGVNPMGWYRQTPGKERELVARINWSSGRTYYADSVKGRFTISRDNAKNTVYLQMNCLKPEDTAVYYCAAAYWRPGVRFFGPYDYWGQGTQVTVSS	high polyreactivity
QVQLEESGGGLVQAGGSLRLSWAASGSTFVPNAMGWYRQAPGKERELVAAISYSGGTTYYADSVKGRFTISRDNAKNTVYLQMNSLKPEDTAVYYCAARSKGAAAILDDYWGQGTQVTVSS	low polyreactivity
QVQLEESGGGLVQAGGSLRLTCAASGRILGYSAMGWYRQAPGKERELVAAISSGDSTNSADSVKGRFTISRDNAKITVYLQMNSLKPEDTAVYYCAAKGCIWNPYNYWGQGTQVTVSS	low polyreactivity
QVQLEESGGGLVQAGGSLRLTCAASGRTFYNNAMGWYRQAPGKERQLVATISKSGGSTNYADSVKGRFTISRDNAKNTVYLQMNSLKPEDNAVYYCAADTSGGSWGRGRWKYGYWGQGTQVTVSS	high polyreactivity
QVQLEESGGGLVQAGGSLRLTCAPSGTTFSRYVMGWYRQAPGKERELVAAINRSSGSTYYADSVKGRFTISRDNAKNTVYLQMNSLKPEDTAVYYCAALYRKRGSVQYDYWGQGTQVTVSS	high polyreactivity

Sequence	polyreactivity (PSR sort gate)
QVQLEESGGGLVQAGGSLRVSCSASGSTYLDYHMGWYRQAPGQQRELVAAITDSGGRTYYADSVKARFTISRDNAKNTVYFQMKSLKPEDTAVYYCARDRGKITPYDYWGQGTQVTVSS	low polyreactivity
QVQLEESGGGLVQAGGSLSLSCAASGRNMPYNVMAWYIQATGKEREFVAAITGSGGDTYYADSVKGRFTISRDNAKNTVYLQMNSLKPEDTAVYYCAAAPYIGCSFGQTPGSGYWGQGTQVTVSS	low polyreactivity
QVQLEESGGGLVQAGGSLSLSCAASGSILIYNAMGWYRQAPGKERELVAGISRRGASTYYADSVKGRFTISRDNEKKTVYLQMNRLKPEDTAVYYCAALGKYIVAWSGDYWGQGTQVTVSS	low polyreactivity
QVQLEESGGGLVQAGGSRRLSCAASGSIFIANAMGWYRQAAGKEREFVAGISASGSSTYYADSVKVRFTISRDNAKNTVYLQMNILKPEDTAVNYCAAGSYYWGQGTQVTVSS	high polyreactivity
QVQLEESGGGLVQAGGTLRLSCAASGRIFSGYAMGWYRQAPGKERELGAAISSSGGSTYYADSVQGRFTISRDNAKNTVYLQMNSLKPEDTAVYYCAASRSRYSVNWYNYWGQGTQVSVSS	high polyreactivity
QVQLEESGGGLVQAGRSLRFSCAASGRIFPWYTMGWYRPAPGKERELVAVISSGGRTHYADSVKGRFTISRDNAKNTVYLQMNSLKPEDTAVYYCAGESRYQRYDYWRQGTQVTVSS	high polyreactivity
QVQLEESGGGLVQAGVSLRLSCAASGRIFLSNAMGWYRQAPGKEREFVAAISWRGGSTYYADSVKGRFTISRDNAKNTVYLQMNSLKPEDTAVYYCAVDVRYYYGRSYDYWGQGTQVTVSS	high polyreactivity
QVQLEESGGGLVQARGSLRLSCAASGSTFNSYAMGWYRQAPGKERELVAAISSTGGNTYYADSVKGRFTISLDNAKNTVYLQMNSLKPEDTAVYYCNARRYGKVVRSSYNYWGQGTQVTVSS	high polyreactivity
QVQLEESGGRLVQAGGSIRLTCAASGSIFASNTKGWYRQAPGKERELVAGITKIGSSTYYADSVKGRFTISRDNAKNTVYLQMNSLKPEDTAVYYCNAYGPNIYSSRYDYWGQCTQVTVSS	low polyreactivity
QVQLEESGGRLVQAGGSLRLRCAASGLMYTRYVMGWYRQAPGKERELVAVISSGGSTYYADSVKGRFTISRDNAKNTVYLQMNSLIAEDTAVYYCAAYLRSSHVTYDYWGQGTQVTVSS	high polyreactivity
QVQLEESGGRLVQAGGSLRLSCAASGSTFSNNAMGWYRQAPGKERELVAAIRTSGGRTYYADSVKGRFTISRDNAKHTVYLQMNSLKPEDTAVYYCAKRWVYRYGYEYWGQGTQVTVSS	high polyreactivity
QVQLEESGLGLVQAGGSLRLSCAASGFTFYGNAMGSYRKAPGKEREFVAAISSSGASTRYADSVKGRFTISRDNAKNTVYLQMYSLKPEDTAVYYCAADAPAWILEAYGYWGQGTQVTVSS	low polyreactivity
QVQLEESGRGLDQAGVSLRLSCAASVSTFAGYAMGWYRQAPVKERELVATITYSGGSTYYADSVKGRFTISRDNAKNTVYLQMNSLKPEDTAVYYCAKKASDWWGYEYWGQGTQVTVSS	low polyreactivity
QVQLEESGRGLVQAGGSLRLSCAASGFTFNWYAMGWSSQATGKERELVATINSGGSTYYADSVKGRFTISRDNAKNTVYLQMNSLKPEDTAVYYCNRTHRRRYVKSAYNYWGQGTQVTVSS	low polyreactivity
QVQLEESGVGLVQAGGSLRLSSAASGNIFVRYSMGWYRQARGKERELVAAISWSGGRTYYADSVKGRFTISRDKAKNSVYFQMNSLKPEDTAVYYCAAGVPKIGQAGYDYWGQGTQVTVSA	high polyreactivity
QVQLEESRGGLVQAGGSLRLSCAASGLNFRSNAMGWYRQAPGKERELVAAISSSGGSTYYADSVKGRFTISRENAKNTVYLQMNSLKPEDTAVYYCAAEDPADQYDYWGQGTQVTVSS	high polyreactivity
QVQLEESRGGLVQAGGSLRLSCAASGLTSRQYAMGWYSQAPGKERELVAAITLRDGSTYYADSVKGRFTISRDNAKNTDYLQMNSLKPEDTAVYYCARRYLGLYSHFDYWGQGTQVTVSS	high polyreactivity
QVQLEESRGGLVQAGGSLRLSCAASGNIFGSNAMGWYRQAPGKERGLVAAISGSNGGTYYADSVKGRFTISRDYAKNTVYLQMNSLTPEDTAVYFCAAVWYLEDHHDYYYWGQGTQVTVSS	low polyreactivity
QVQLEESVGGLVQAGGSLRLSCAASGRIFRGYAMGWYRQAPGKETELVATISAIGGSTYADSVKGRFTISRDNAKNTVYLQKNSLKPEDTAVYYCNVRKVYRYQFRFEYWGQGTQVTVSS	high polyreactivity
QVQLEESVGGLVQAGGSLRLSCAASGSILLWNAMGSYREAPGKERELVAAISSSGTSTYYADSVKGLFTISRDNAKNTVYLQMNSEKPEDNAVYYCAADQSEFYAIYYYWGQGTQVTVSS	low polyreactivity
